The target in experiment [1] is T1, recombinant human ROR1 extracellular domain protein (human, UniProt Q01973 30-406).
T1 construct: extracellular domain; Analyte in solution in the Octet assay; also called human ROR1 ECD
The experiment in a line: Octet, mono-valent binding to human ROR1. From the text: The heavy and light chain expression plasmids generated from each well were transiently co-transfected to produce rabbit/human chimeric antibodies. Recombinant antibody supernatants were confirmed to contain anti-ROR1 antibodies using bio-layer interferometry analysis on a ForteBio Octet Red 96 instrument. Anti-human Fc biosensors (Pall ForteBio) were used to capture antibodies in the supernatants. Association to ROR1 was observed by real-time interferometry by placing the biosensors in wells containing recombinant human ROR1 extracellular domain protein. Dissociation was measured after transfer of the biosensors into wells containing 10× kinetics buffer (Pall ForteBio). The software provided by the manufacturer was used to analyze the interferometry data.
(BLI is a label-free optical method that tracks binding on a fibre tip over time.)

In experiment [2] the target is T2, human ROR1 'Frizzled-Kringle domain' (human, UniProt Q01973).
T2 construct: used plain or biotinylated
The experiment in a line: Octet.

Experiment [3] addresses T3, Human ROR2 (human, UniProt Q01974). As to the kind of experiment: Octet.
The target of experiment [4] is T4, mouse ROR1 (serum titer ELISA antigen) (mouse, UniProt Q9Z139 30-403, limits assumed). The experiment in a line: Octet.
A further experiment has as its target T5, Mouse ROR1-CHO (mouse, UniProt Q9Z139).
T5 construct: expressed on the surface of CHO cells; also called mouse ROR1 on CHO cells
As to the kind of experiment: FACS, mouse ROR1-CHO. On the technique in general: Flow cytometry measures light scatter and fluorescence of single cells or particles in a stream.

For experiment [5], the target named is T6, human ROR1 'Ig-Frizzled domain' (human, UniProt Q01973).
T6 construct: used plain or biotinylated
As to the kind of experiment: Octet.

The target in experiment [6] is T7, human ROR1 'Kringle domain' (human, UniProt Q01973, biotinylated).
T7 construct: also called biotinylated human ROR1 Kringle domain
The experiment in a line: ELISA, biotinylated antigen on avidin plate; BCC supernatant.

The target in experiment [7] is T3, Human ROR2. The experiment in a line: ELISA, direct coat; BCC supernatant. (In general: An ELISA detects its analyte on a solid surface through an enzyme-linked reagent.)
For another experiment, the target named is Human ROR2 (human) (UniProt Q01974). The experiment in a line: ELISA, direct coat; BCC supernatant.
Experiment [8] addresses recombinant human ROR1 extracellular domain protein (human) (UniProt Q01973). The experiment in a line: ELISA, direct coat; BCC supernatant.
For experiment [9], the target named is Human ROR1-CHO cells (human) (UniProt Q01973). The experiment in a line: FACS; BCC supernatant.
The target of experiment [10] is T6, human ROR1 'Ig-Frizzled domain'. As to the kind of experiment: ELISA, biotinylated antigen on avidin plate; BCC supernatant.
Experiment [11] deals with T2, human ROR1 'Frizzled-Kringle domain'. Described as above.
Experiment [12] addresses T6, human ROR1 'Ig-Frizzled domain'. As to the kind of experiment: ELISA, direct coat; BCC supernatant.
Experiment [13] has as its target T2, human ROR1 'Frizzled-Kringle domain'. The experiment in a line: ELISA, direct coat; BCC supernatant.
For experiment [14], the target named is T4, mouse ROR1 (serum titer ELISA antigen). As to the kind of experiment: ELISA, direct coat; BCC supernatant.
Experiment [15] addresses T1, recombinant human ROR1 extracellular …. The experiment in a line: ELISA, direct coat; BCC supernatant.
The target is the same in experiment [16]. As to the kind of experiment: Octet, bi-valent binding to human ROR1.

T6 sequence (Q01973 30-305 limits assumed): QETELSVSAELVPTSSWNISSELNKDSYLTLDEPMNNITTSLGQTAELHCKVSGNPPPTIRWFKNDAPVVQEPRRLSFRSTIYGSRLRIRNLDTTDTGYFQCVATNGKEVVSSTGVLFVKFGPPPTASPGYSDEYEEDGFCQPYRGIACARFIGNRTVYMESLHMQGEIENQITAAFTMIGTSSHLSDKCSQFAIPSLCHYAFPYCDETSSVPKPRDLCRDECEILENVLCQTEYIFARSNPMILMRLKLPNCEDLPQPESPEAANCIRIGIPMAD
T3 sequence (Q01974 34-403 limits assumed): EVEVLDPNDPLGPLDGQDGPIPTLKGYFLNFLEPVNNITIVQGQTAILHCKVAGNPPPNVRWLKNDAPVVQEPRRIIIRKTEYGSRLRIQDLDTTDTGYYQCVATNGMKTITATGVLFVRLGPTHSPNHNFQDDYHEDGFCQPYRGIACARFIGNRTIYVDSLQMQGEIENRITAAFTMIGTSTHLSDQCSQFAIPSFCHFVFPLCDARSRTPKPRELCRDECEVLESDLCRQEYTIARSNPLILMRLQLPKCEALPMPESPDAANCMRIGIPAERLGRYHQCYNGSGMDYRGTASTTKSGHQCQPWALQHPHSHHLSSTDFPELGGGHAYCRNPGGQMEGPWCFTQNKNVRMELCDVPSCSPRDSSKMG
T1 sequence (Q01973 30-406): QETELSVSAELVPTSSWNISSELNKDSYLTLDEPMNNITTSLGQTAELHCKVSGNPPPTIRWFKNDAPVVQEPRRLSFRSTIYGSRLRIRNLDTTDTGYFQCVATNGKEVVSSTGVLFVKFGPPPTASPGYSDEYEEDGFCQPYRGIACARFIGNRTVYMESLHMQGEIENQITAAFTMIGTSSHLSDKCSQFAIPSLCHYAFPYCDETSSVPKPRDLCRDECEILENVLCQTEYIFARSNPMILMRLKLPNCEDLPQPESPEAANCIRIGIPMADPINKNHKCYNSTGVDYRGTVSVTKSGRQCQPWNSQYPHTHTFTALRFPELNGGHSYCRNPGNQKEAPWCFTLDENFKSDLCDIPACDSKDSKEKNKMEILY
T4 sequence (Q9Z139 30-403 limits assumed): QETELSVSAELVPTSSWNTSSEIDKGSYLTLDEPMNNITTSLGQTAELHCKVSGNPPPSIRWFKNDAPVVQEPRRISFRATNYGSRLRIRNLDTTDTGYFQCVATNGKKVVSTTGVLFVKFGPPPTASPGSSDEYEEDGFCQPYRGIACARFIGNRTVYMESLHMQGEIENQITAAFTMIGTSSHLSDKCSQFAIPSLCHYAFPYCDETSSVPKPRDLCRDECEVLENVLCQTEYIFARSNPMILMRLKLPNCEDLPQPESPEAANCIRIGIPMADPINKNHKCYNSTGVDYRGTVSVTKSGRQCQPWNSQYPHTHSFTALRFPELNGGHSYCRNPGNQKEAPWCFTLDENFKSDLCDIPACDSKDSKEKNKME
T2 sequence (Q01973 165-406 limits assumed): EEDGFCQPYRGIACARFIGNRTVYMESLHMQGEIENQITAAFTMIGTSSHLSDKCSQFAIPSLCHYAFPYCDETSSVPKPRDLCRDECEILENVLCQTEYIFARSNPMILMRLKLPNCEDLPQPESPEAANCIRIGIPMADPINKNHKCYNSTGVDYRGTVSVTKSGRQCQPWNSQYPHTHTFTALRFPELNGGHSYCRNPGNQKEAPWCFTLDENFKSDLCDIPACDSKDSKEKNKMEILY
Sequence of Human ROR2 (human) (Q01974 34-403 limits assumed): as the sequence (Q01974 34-403 limits assumed) above
Sequence of Human ROR1-CHO cells (human) (Q01973 30-937 limits assumed): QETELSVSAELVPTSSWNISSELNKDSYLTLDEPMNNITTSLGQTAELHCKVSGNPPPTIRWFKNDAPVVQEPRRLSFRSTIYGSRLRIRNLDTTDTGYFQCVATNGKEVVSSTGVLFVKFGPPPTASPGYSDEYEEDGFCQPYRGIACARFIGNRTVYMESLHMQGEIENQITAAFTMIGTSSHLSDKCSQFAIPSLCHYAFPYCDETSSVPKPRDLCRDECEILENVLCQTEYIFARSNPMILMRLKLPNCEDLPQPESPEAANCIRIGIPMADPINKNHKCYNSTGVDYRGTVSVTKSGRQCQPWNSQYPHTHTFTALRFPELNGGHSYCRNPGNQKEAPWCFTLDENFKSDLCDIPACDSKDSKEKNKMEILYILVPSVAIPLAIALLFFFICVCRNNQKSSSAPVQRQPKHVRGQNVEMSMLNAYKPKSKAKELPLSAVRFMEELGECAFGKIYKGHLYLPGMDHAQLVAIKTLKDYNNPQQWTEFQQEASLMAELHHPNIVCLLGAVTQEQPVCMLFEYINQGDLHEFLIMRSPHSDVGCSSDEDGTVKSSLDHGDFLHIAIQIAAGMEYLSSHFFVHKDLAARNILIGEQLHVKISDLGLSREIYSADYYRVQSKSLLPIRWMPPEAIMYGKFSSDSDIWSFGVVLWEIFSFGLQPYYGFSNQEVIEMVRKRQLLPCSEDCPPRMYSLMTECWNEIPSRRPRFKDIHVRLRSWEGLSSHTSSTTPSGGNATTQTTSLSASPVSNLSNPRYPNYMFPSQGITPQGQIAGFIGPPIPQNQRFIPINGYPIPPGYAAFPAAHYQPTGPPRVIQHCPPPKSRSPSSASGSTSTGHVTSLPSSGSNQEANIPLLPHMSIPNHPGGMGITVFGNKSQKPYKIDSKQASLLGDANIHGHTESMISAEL
T5 sequence (Q9Z139 30-937 limits assumed): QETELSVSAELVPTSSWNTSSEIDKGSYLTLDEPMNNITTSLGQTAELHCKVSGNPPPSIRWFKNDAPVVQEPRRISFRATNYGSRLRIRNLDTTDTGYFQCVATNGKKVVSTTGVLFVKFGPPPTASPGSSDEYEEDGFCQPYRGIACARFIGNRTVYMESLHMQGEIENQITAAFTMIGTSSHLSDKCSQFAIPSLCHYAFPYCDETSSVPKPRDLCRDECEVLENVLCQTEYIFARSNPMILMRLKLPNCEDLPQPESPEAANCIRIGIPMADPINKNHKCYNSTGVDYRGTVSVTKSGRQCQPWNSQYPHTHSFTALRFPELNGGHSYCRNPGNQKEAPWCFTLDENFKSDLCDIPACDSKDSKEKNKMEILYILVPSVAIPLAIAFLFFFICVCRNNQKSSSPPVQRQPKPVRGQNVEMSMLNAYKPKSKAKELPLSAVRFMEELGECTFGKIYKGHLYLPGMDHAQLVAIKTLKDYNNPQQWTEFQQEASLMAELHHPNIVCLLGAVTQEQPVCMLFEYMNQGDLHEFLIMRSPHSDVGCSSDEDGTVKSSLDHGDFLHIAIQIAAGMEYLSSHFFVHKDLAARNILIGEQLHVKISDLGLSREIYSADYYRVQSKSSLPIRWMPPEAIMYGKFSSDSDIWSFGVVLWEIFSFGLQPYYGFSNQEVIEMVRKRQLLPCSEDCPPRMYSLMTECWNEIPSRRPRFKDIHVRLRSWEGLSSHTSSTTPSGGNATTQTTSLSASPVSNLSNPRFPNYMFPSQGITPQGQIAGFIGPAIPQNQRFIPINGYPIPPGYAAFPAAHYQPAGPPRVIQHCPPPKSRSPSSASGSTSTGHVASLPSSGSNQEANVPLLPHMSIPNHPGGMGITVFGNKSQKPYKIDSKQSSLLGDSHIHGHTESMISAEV
T7 sequence (Q01973 308-395 limits assumed): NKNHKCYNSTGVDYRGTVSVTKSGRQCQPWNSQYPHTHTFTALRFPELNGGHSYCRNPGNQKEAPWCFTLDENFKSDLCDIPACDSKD
Sequence of recombinant human ROR1 extracellular domain protein (human) (Q01973 30-406): as the sequence (Q01973 30-406) above

B1: 324C7 chimeric rabbit/human IgG antibody (antibody, V domains shown)
VH: QSVEESGGRLVTPGTPLTLTCTVSGFSLSGAGVSWVRQAPGKGLEWIGYIDSGATTYYASWAKGRFTISKASTTVDLKIASPTTEDTATYFCARGYYGMDPWGQGTLVTVSS
VL: DIVMTQTPASVEVAVGGTVTIKCQASQNIGSDLAWYQQKPGQPPKLLIYTTSNLASGVPSRFKGSGSGTGFTLTISDLECADAASYCCQGGYFSGRNIYGNAFGGGTEVVVKR
notes: Rabbit variable regions on human gamma-1 and human kappa constant domains
Take B1: the off-rate (koff) in [1] was 1.35e-08 s⁻¹. Moreover, the binding result (in experiment [2]; with Human ROR2 [3]; in [4]; in the experiment with Mouse ROR1-CHO) was “no binding” in each case.

B2: 330F11 chimeric rabbit/human IgG antibody (antibody, V domains shown)
VH: QSVEESGGRLVTPGTPLTLTCTVSGFSLNNYWMSWVRQAPGEGLEWIGTISSGAYTWFATWATGRFTISKTSTTVDLSITSPTTEDTATYFCARYSSTTDWTYFNIWGPGTLVTVSS
VL: DVVMTQTPASVEAAVGGTVTIKCQASQSINNYLAWYQQKPGQPPKLLIYRASTLESGVPSRFKGSGSGTQFTLTISDLECADAATYYCQSYNGVGRTAFGGGTEVEFKR
notes: as for B1
With B2, the koff in experiment [1] was 1.26e-08 s⁻¹. The binding result (in [5]; with Human ROR2 [3]) was “no binding” in each case.

B3: 226E12 (antibody, V domains shown)
VH: QSLEESGGRLVTPGTPLTLTCTASEFSLSNYYMSWVRQAPGEGLEWIGAINADSDNTWYPSWVKGRFTISKTSSTTVDLKITSPTIEDTATYFCARSVSNNFAEYNIWGPGTLVTVSS
VL: AYDMTQTPSSVSAAVGGTVTIKCQASQRIYSYLAWYQQKPGQPPKLLIYRASTLASGVPSRFKGSGSGTEYTLTISDLECADAATYYCQQGASMVDVENMFGGGTEVVVK
notes: chimeric counterpart m2; also called rabbit IgG of BCC well 226E12
For the molecule B3, the “ELISA OD450” value came out at 0.41 OD450 in [6] and 0.09 OD450 with Human ROR2 [7].

B4: 324E2 (antibody, V domains shown)
VH: QSVEESGGRLVTPGTPLTLTCTVSGFSLSNNAITWVRQAPGKGLEYIGIISSSGTTYYASWAKGRFTISKTSSTTVDLKMTSLTTEDTATYFCAGAFSVWGPGTLVTVSS
VL: AQVLTQTPSSVSAAVGGTVTINCQSSQSVNNNDLAWFQQKPGQPPKRLIYWASKLASGVPSRFKGSGSGTQFILTISDLECDDAATYYCAGGYSGNIYGFGGGTEVEVK
notes: chimeric counterpart m6; also called rabbit IgG of BCC well 324E2
Turning to B4, the ELISA OD450 in the experiment with Human ROR2 (human) was determined as 0.21 OD450; in [8], 0.48 OD450; in [10], 0.62 OD450; in experiment [11], 0.1 OD450; in experiment [12] it was 1.29 OD450; in experiment [13], 0.18 OD450. Also, the “ELISA OD450” value in [14] was 2.17 OD450. In addition, the FACS MFI in [9] was determined as 25 MFI.

B5: 323D10 (antibody, V domains shown)
VH: QSVEESGGRLVTPGTPLTLTCTVSGFSLSRNAMNWVRQAPGKGLEYIGYISTSGTTFYANWVKGRFTISKTSTTVDLKMTSLTTEDTATYFCARDYNYAMDIWGQGTLVTVSS
VL: AIDLTQTPASVEAAVGGTITINCQASESISSWLAWYQQKPGQRPKLLIYETSKLASGVPPRFSGSGSGTQFTLTISGVQCDDAATYYCQSYYRINNIGYDNAFGGGTEVEFK
notes: chimeric counterpart m5; also called rabbit IgG of BCC well 323D10
Take B5: the ELISA OD450 in the experiment with Human ROR2 (human) was 0.23 OD450; in [10] it was 2.23 OD450; in experiment [11] it was 0.17 OD450; in [12], 1.94 OD450; in experiment [13] it was 0.32 OD450; in experiment [15], 2.32 OD450. Besides, the “ELISA OD450” value in experiment [14] came to 4 OD450. The same molecule displayed an FACS MFI in experiment [9] of 20 MFI.

B6: 323D10 chimeric rabbit/human IgG antibody (antibody, V domains shown)
VH: B5 VH
VL: AIDLTQTPASVEAAVGGTITINCQASESISSWLAWYQQKPGQRPKLLIYETSKLASGVPPRFSGSGSGTQFTLTISGVQCDDAATYYCQSYYRINNIGYDNAFGGGTEVEFKR
notes: as for B1
B6: the binding result (in experiment [2]; in the experiment with Human ROR2 [3]) was “no binding” each time. The koff in experiment [16] worked out at 0.00961 s⁻¹.

B7: 323H7 chimeric rabbit/human IgG antibody (antibody, V domains shown)
VH: QEQLKESGGGLVTPGGTLTLTCTASGFTISRYHMTWVRQAPGKGLEWIGHIYVNNDDTDYASWAKGRFTISKTSTTVDLKITSPTTEDTATYFCARLDVGGGGAYIGDIWGQGTLVTVSS
VL: QAVVTQTPSSVSAAVGGTVTISCQSSQSVYNNNDLAWYQQKPGQPPKLLIYYASTLASGVSSRFKGSGSGTQFTLAISDLECDDSATYYCAGGYDTDGLDTFAFGGGTEVEVKR
notes: as for B1
Turning to B7, the results for the off-rate constant (koff) in experiment [1] and in experiment [16] were 2.08e-08 s⁻¹ and 0.0062 s⁻¹, respectively. The binding result (in [2]; with Human ROR2 [3]; in [4]; with Mouse ROR1-CHO) was “no binding” in each case.

For orientation: koff means the rate constant with which the complex falls apart.

The values are drawn from patent publication US20210277109A1 (SYSTIMMUNE, published 2021).
